In patent US20240238459:

Tests used:
^64Cu-GRIP B = test system: T1, ^64Cu-GRIP B
T1 sequence: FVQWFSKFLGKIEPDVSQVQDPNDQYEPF

[1] = test system: T2, substrate sequence FVQWFSKFLGK (SEQ ID NO:3)
T2 sequence: FVQWFSKFLGK

[2] = test system: T3, granzyme B-cleavable restricted interaction peptide (GRIP B), full length
T3 sequence: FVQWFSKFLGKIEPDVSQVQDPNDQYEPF

[3] = test system: T4, quenched fluorogenic peptide NH2-K(MCA)IEPDVSQVK(DNP)-COOH
T4 sequence: KIEPDVSQVK

Substance | proteolytic conversion on radio-HPLC (^64Cu-GRIP B) | protease specificity (cleavage activity; enzyme 5 nM, substrate 60 µM) [1] | proteolytic cleavage [2] | kcat/Km [3]
recombinant human granzyme B | showed conversion within 30 minutes to one radiolabeled product | the substrate sequence is highly specific for granzyme B compared to the other proteases tested | full length GRIP B was efficiently cleaved by recombinant human GZMB | ˜8000 M^-1 sec^-1
MMP9 | – | the substrate sequence is highly specific for granzyme B compared to the other proteases tested | – | –
thrombin | – | the substrate sequence is highly specific for granzyme B compared to the other proteases tested | – | –
caspase 3 | – | the substrate sequence is highly specific for granzyme B compared to the other proteases tested | – | –
caspase 8 | – | the substrate sequence is highly specific for granzyme B compared to the other proteases tested | – | –
